Columns and labels:
[1] = target: mouse VEGFR-2/Fc chimeric receptor (mouse) (UniProt P35918); assay: competition plate binding assay: cold competitor against 125I-VEGF165 on immobilized VEGFR-2 (KDR)/Fc, scintillation counting
[2] = target: mouse VEGFR-1/Fc chimeric receptor (mouse) (UniProt P35969); assay: competition plate binding assay: cold competitor against 125I-VEGF165 on immobilized VEGFR-1 (Flt-1)/Fc, scintillation counting
[3] = target: rat Neuropilin-1/Fc chimeric receptor (rat) (UniProt Q9QWJ9); assay: competition plate binding assay, cold competitor against 125I-VEGF165 on immobilized rat neuropilin-1/Fc, without heparin
Sequence of rat Neuropilin-1/Fc chimeric receptor (rat) (Q9QWJ9 22-854, stated change not applied): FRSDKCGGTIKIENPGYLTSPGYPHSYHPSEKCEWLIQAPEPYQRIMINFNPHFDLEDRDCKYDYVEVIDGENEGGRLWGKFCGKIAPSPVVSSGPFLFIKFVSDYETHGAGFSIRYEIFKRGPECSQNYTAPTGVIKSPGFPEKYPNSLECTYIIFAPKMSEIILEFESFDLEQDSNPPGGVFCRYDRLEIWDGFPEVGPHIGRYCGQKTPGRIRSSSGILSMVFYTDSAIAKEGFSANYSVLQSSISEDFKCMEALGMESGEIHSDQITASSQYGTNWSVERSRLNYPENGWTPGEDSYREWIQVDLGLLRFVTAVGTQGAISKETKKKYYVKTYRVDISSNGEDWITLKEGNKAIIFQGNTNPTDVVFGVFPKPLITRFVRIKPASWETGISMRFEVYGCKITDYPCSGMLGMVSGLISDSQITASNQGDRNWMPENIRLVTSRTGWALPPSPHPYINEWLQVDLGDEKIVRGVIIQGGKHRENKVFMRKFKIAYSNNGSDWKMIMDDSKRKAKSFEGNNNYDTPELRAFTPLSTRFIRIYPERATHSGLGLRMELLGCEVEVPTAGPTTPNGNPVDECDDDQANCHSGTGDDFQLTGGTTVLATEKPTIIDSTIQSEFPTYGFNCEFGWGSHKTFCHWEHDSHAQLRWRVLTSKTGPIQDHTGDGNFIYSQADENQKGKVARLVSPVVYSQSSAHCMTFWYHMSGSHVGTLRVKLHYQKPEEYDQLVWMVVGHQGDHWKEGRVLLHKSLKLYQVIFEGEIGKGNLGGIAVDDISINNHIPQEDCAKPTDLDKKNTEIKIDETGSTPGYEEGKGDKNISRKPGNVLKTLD

Sequence of mouse VEGFR-1/Fc chimeric receptor (mouse) (P35969 23-759, stated change not applied): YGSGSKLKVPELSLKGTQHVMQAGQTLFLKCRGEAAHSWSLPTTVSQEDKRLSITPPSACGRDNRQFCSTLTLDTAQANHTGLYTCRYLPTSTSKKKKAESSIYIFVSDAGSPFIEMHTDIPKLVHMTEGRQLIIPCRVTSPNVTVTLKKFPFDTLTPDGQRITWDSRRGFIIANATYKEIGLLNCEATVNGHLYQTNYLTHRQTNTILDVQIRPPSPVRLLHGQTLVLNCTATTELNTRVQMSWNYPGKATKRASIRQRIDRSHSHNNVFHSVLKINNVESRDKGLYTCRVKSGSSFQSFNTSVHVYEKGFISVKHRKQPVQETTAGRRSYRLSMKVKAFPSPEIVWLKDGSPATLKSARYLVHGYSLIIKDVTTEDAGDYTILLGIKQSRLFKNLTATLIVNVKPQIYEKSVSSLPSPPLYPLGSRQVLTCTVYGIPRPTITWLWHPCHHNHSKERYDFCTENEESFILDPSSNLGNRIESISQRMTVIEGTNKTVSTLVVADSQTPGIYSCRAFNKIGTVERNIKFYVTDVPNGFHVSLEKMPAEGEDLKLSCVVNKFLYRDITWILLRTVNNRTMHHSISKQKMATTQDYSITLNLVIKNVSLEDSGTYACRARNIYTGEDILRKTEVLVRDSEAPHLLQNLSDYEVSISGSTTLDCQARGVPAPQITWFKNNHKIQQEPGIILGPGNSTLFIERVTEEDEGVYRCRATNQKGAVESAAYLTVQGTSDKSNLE
Sequence of mouse VEGFR-2/Fc chimeric receptor (mouse) (P35918 20-762, stated change not applied): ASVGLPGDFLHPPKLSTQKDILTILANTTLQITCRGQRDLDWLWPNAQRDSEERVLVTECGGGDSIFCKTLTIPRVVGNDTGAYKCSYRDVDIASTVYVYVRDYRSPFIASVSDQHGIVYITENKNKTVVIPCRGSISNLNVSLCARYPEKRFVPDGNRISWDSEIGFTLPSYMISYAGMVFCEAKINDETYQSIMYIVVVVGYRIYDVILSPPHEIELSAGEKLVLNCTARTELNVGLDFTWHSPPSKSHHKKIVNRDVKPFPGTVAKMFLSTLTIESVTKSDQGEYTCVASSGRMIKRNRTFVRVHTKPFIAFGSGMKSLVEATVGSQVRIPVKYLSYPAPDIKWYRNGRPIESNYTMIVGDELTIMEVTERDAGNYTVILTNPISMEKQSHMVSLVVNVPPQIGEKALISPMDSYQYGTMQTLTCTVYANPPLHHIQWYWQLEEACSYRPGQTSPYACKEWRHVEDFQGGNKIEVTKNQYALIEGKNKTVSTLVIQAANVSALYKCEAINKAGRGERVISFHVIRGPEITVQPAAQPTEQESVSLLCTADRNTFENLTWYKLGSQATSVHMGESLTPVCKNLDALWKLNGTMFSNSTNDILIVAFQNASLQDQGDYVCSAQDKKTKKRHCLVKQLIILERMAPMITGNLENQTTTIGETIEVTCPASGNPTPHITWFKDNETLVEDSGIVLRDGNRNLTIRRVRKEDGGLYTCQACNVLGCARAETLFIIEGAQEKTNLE

IC50 (read off the curve) [1]	IC50 (read off the curve) [2]	fold reduction of binding affinity compared to VEGF164 [3]	Substance
0.08 nM	0.09 nM		VEGF164 double mutant R14A/R49A (from UniProt P15692 207-395) (ligand)
		115 fold	VEGF164 mutant R13A/R14A/R46A/R49A (from UniProt Q00731 27-190) (ligand)
0.08 nM	0.2 nM		VEGF164 triple mutant R13A/R14A/R49A (from UniProt P15692 207-395) (ligand)
